Test results from patent US20230416343A1.
Where two headings read alike, the source gives them in different places.

Assays:
[1] = target: SARS-CoV-2 Delta variant S protein expressed on HEK293 cells (SARS-CoV-2) (UniProt P0DTC2)
[2] = target: SARS-CoV-2 variant spike protein del 69-79 plus N501Y on HEK293 cells (SARS-CoV-2) (UniProt P0DTC2)
[3] = target: SARS-CoV-2 variant spike protein del 69-79 plus N439K on HEK293 cells (SARS-CoV-2) (UniProt P0DTC2)
[4] = target: SARS-CoV-2 variant spike protein del 69-79 plus N501Y and D614G on HEK293 cells (SARS-CoV-2) (UniProt P0DTC2)
[5] = target: SARS-CoV-2 variant spike protein del 69-79 plus N439K on HEK293 cells (SARS-CoV-2) (UniProt P0DTC2); remark: listed apart in the source
[6] = target: SARS-CoV-2 Delta Plus variant S protein expressed on HEK293 cells (SARS-CoV-2) (UniProt P0DTC2)
[7] = target: SARS-CoV-2 Delta variant S protein expressed on HEK293 cells (SARS-CoV-2) (UniProt P0DTC2); remark: listed apart in the source

## S1D7270LALA antibody (STI-2020)
[1]
  EC50: 0.106 µg/mL
[2]
  EC50 (read off the curve): 0.09 µg/mL
[3]
  EC50 (read off the curve): 0.07 µg/mL
[4]
  EC50: 172 µg/mL
[5]
  EC50: 70 µg/mL
[6]
  EC50: 0.187 µg/mL
[7]
  EC50: 0.105 µg/mL
